Measured values reported in patent US20240117011A1 (US Dept. of Health and Human Services, published 2024).

Assays:
[1] = biological target: full-length spike B.1.617.2 (SARS-CoV-2, UniProt P0DTC2 13-1273); assay: cell-based or functional assay
[2] = biological target: spike of variant B.1.1.345 on pseudotyped lentiviral particles; assay: cell-based or functional assay

B1: A19-46.1 (antibody, V domains shown)
VH: QVQLVESGGGVVQPGRSLRLSCAASGFTLSSYGMHWVRQAPGKGLEWVAVISYDGSNKYYVDSVKGRFTISRDNSKNTLYLQMNSLRAEDTAVYYCARGWAYWELLPDYYYGMDVWGQGTTVTVSS
VL: QTVVTQEPSFSVSPGGTVTLTCGLSSGSVSTAYFPSWYQQTPGQAPRTLIYGTNTRSSGVPDRFSGSILGNKAALTITGAQADDESDYYCVLYMGRGIVVFGGGTKLTVL
- neutralization IC50 [1]: > 10 µg/mL
- pseudotyped virus neutralization IC50 [2]: 0.095 µg/mL
